This data set deals with T1, PrimPol24-354 (AEP catalytic domain);PolDIP2 (untagged) (human;human?, UniProt Q96LW4;Q9Y2S7 24-354;1-368, |).
T1 sequence 1: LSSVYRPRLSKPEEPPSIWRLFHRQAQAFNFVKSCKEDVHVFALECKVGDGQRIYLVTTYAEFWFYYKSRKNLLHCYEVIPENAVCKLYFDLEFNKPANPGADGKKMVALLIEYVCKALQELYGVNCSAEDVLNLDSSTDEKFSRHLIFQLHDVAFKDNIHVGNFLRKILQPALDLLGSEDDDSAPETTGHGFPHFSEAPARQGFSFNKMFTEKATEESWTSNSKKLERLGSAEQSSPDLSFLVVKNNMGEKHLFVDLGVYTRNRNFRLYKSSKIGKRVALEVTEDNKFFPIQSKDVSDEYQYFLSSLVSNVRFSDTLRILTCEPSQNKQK
T1 sequence 2: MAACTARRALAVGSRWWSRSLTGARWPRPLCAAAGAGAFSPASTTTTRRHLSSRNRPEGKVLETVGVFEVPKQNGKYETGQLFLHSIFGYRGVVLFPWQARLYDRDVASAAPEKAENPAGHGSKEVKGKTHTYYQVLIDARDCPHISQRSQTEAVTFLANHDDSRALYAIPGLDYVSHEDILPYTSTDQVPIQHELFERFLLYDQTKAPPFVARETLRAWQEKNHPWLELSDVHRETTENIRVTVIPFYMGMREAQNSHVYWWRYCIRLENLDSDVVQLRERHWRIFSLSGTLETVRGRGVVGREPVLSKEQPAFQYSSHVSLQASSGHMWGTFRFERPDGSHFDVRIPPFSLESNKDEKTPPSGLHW
In words: EMSA; PolDIP2 50-250 nM with PrimPol; more DNA bound than by PrimPol alone, super-shifted complex; 10 mM Mg2+; EMSA: 10 mM Bis-Tris-propane-HCl pH 7.0, 10 mM MgCl2, 100 uM DTT, 20 nM DNA; 5% native PAGE, 0.5x TBE; binding temperature not stated. The following applies: protein: recombinant;recombinant; tags: ;none (GST cleaved with PreScission protease); copies: 1;1; label: 5'-HEX on primer; 3'-biotin on template; 20 bp duplex; template 5' overhang 77 nt. A general note: Mobility shift assays separate free from complexed probe on a gel.

B1: 20/97-mer primer/template (HP-20 / ND-97) (mixed)
DNA 1: TGTCGTCTGTTCGGTCGTTC
DNA 2: ACCGCGAACTTGAATTCTAGTTCAGTCTAAATGCTCTCAAGCACTGAGCAATTCACAACATATGGCTTTCGATTACCGAACGACCGAACAGACGACA
Regarding B1, the binding result is given as “binds”.
